Target: T1, spike protein of alphacoronavirus NL63-CoV (HCoV-NL63, UniProt Q6Q1S2 16-1291)
T1 sequence: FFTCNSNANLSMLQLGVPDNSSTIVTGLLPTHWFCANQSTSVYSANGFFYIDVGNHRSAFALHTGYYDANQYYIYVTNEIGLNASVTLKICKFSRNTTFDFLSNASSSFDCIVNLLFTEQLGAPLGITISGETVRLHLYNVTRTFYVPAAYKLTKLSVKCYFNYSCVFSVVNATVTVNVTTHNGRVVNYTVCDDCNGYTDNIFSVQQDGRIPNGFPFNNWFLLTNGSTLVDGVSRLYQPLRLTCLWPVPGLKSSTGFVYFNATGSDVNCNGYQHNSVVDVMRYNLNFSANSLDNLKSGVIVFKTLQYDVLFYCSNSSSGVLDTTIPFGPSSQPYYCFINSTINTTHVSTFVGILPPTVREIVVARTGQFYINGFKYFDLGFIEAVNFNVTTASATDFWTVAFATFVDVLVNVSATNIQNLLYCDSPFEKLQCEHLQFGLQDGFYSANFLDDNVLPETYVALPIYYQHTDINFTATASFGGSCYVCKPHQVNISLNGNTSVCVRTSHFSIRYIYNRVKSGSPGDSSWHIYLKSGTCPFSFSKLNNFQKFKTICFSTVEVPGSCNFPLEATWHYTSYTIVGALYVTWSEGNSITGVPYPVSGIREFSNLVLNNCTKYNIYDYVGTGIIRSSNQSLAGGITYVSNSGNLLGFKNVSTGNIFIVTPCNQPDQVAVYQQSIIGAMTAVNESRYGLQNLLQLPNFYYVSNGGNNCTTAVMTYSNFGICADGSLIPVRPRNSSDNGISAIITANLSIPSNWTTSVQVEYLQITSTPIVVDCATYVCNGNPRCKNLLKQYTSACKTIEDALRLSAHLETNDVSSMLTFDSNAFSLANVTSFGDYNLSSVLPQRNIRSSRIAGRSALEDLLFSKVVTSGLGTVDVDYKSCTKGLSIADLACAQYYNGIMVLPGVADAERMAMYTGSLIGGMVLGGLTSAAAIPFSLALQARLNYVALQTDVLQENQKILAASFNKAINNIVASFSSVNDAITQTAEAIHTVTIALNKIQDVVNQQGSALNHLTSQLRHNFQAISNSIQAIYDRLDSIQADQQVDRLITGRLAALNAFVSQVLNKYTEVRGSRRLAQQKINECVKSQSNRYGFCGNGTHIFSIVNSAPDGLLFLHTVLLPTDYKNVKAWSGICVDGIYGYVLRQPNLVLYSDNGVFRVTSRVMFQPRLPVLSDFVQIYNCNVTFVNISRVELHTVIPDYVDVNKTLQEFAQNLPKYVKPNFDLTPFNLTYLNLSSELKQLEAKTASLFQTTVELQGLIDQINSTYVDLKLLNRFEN
Assay: ELISA on alphacoronavirus spike proteins (Fig 37)

B1: antibody S2P6 (antibody 420 1 1), human monoclonal antibody expressed as recombinant human IgG1 (antibody, V domains shown)
VH: EVQLVQSGAEVKKPGASVKVSCKASGYTFTSQYMHWVRQAPGQGLEWIGIINPSGVHTSYAQKFQGRVTLTRDTSTSTLYMELSSLRSEDTAVYYCARGSPKGAFDYWGQGTLVTVSS
VL: not shown
**Q.** Does B1 bind?
**A.** Result: no binding

Source: patent JP2023550785A (dated 2023)
